Measurements published in patent US20140044730A1 (Regeneron, published 2014).
Where two headings read alike, the source gives them in different places.

B1: Parental 300N (antibody, V domains shown)
VH: EMQLVESGGGLVQPGGSLRLSCAASGFTFSSHWMKWVRQAPGKGLEWVANINQDGSEKYYVDSVKGRFTISRDNAKNSLFLQMNSLRAEDTAVYYCARDIVLMVYDMDYYYYGMDVWGQGTTVTVSS
VL: not shown
notes: also called mAb 300N
B2: 300N(v2) (antibody, IgG4, V domains shown)
VH: EMQLVESGGGLVQPGGSLRLSCAASGFTFSSHWMKWVRQAPGKGLEWVANINQDGSEKYYVDSVKGRFTISRDNAKNSLFLQMNSLRAEDTAVYYCARDIVLMVYDMDYYYYGMDVWGQGTTVTVSS
VL: not shown
B3: VH-D106H (antibody, V domains shown)
VH: EMQLVESGGGLVQPGGSLRLSCAASGFTFSSHWMKWVRQAPGKGLEWVANINQDGSEKYYVDSVKGRFTISRDNAKNSLFLQMNSLRAEDTAVYYCARDIVLMVYHMDYYYYGMDVWGQGTTVTVSS
VL: not shown
notes: His variant of 300N
B4: VH-M114H (antibody, V domains shown)
VH: EMQLVESGGGLVQPGGSLRLSCAASGFTFSSHWMKWVRQAPGKGLEWVANINQDGSEKYYVDSVKGRFTISRDNAKNSLFLQMNSLRAEDTAVYYCARDIVLMVYDMDYYYYGHDVWGQGTTVTVSS
VL: not shown
notes: His variant of 300N
B5: VK-L30H (antibody, V domains shown)
VH: EMQLVESGGGLVQPGGSLRLSCAASGFTFSSHWMKWVRQAPGKGLEWVANINQDGSEKYYVDSVKGRFTISRDNAKNSLFLQMNSLRAEDTAVYYCARDIVLMVYDMDYYYYGMDVWGQGTTVTVSS
VL: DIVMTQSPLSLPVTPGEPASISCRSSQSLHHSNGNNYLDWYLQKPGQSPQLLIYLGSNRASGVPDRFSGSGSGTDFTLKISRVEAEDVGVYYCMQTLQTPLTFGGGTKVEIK
notes: His variant of 300N

How the values were obtained:
[1] = molecular target: T1, human PCSK9 with a C-terminal myc-myc hexahistidine tag and a D374Y mutation (human, UniProt Q8NBP7 31-692, limits assumed); experiment: cell-based or functional assay
[2] = molecular target: T2, recombinant cynomolgus monkey PCSK9 with a C-terminal myc-myc hexahistidine tag (cynomolgus monkey, UniProt A8T662 31-692 (Macaca nemestrina entry), limits assumed); experiment: cell-based or functional assay
[3] = molecular target: T3, human PCSK9 with a C-terminal myc-myc-hexahistidine tag (human, UniProt Q8NBP7 31-692, limits assumed); experiment: blocking ELISA pH 7.2, 500 pM hPCSK9-mmH vs coated hLDLR EGFA-hFc, exp #2
T3 construct: also called hPCSK9-mmH; hPCSK9-mmh; not shown: C-terminal myc-myc-hexahistidine tag

[4] = molecular target: T3, human PCSK9 with a C-terminal …; experiment: SPR 25C, mAb captured;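 note: biacore CM4 surface bearing anti-human Fc antibody capturing the mAbs, PCSK9 binding and release rates fitted with a one-to-one model, KD and half-life derived from those rates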
Procedure: (§1) A Biacore CM4 sensor chip was derivatized with a monoclonal mouse anti-human Fc antibody to capture human antibodies. The histidine substitution variant anti-PCSK9 antibodies were captured onto the anti-human Fc sensor surface from culture medium after transient expression in Chinese hamster ovary (CHO) cells. […] Kinetic association (kₐ) and dissociation (kd) rate constants were determined by processing and fitting the data to a 1:1 binding model using Scrubber 2.0 curve fitting software. Binding dissociation equilibrium constants (KD) and dissociative half-lives (t_{1/2}) were calculated from the kinetic rate constants as: KD (M)=kd/kₐ; and t_{1/2} (min)=(In2/(60*kd).

[5] = molecular target: T3, human PCSK9 with a C-terminal …; experiment: SPR 25C pH 7.2, mAb captured;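 note: biacore SPR, antibodies captured on anti-human Fc CM4 chip with PCSK9 flowed as analyte, rate constants from a one-to-one kinetic fit, KD and half-life derived from them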
Procedure: as §1

[6] = molecular target: T3, human PCSK9 with a C-terminal …; experiment: blocking ELISA pH 7.2, 500 pM hPCSK9-mmH vs coated hLDLR EGFA-hFc, exp #1
Source text: The equilibrated sample solutions were then transferred to the LDLR EGFA-hFc coated plate prepared as described above.

[7] = molecular target: T3, human PCSK9 with a C-terminal …; experiment: SPR 25C pH 5.75, mAb captured;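 note: biacore surface with anti-human Fc antibody capturing the antibodies, PCSK9 as analyte, one-to-one kinetic fit, KD as kd over ka, half-life derived from kd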
Procedure: as §1

[8] = molecular target: T3, human PCSK9 with a C-terminal …; experiment: SPR (Biacore), 37 °C; antibody captured on anti-human Fc surface, hPCSK9-mmH injected (3.125-50 nM); association at pH 7.4, dissociation at pH 7.4
Procedure: (§2) A Biacore CM4 sensor chip was derivatized with a Fab′2 polyclonal anti-human Fc antibody to capture human antibodies. […] Dissociation (kd) rate constants were determined by processing and fitting the data using Scrubber version 2.0 curve fitting software. Dissociative half-lives (t_{1/2}) were calculated from the dissociation rate constants as: t_{1/2} (min)=(In2/kd)/60.

[9] = molecular target: T3, human PCSK9 with a C-terminal …; experiment: SPR 25C, purified mAb captured
Procedure: as §1
(§3) Also included in these experiments were several control/comparator antibodies. All measurements were taken at 25° C.

[10] = molecular target: T3, human PCSK9 with a C-terminal …; experiment: SPR (Biacore), 37 °C; antibody captured on anti-human Fc surface, hPCSK9-mmH injected (3.125-50 nM); association at pH 7.4, dissociation at pH 6.0
Procedure: as §2

[11] = molecular target: T3, human PCSK9 with a C-terminal …; experiment: blocking ELISA pH 7.2, 500 pM hPCSK9-mmH vs coated hLDLR EGFA-hFc
Procedure: (§4) Briefly, hLDLR EGFA-hFc was coated at 2 μg/mL in PBS on a 96-well microtiter plate overnight at 4° C. followed by blocking with a solution of 0.5% (w/v) BSA in PBS.
(§5) The equilibrated sample solutions were then transferred to a LDLR EGFA-hFc coated plate.

[12] = molecular target: T3, human PCSK9 with a C-terminal …; experiment: SPR (Biacore), 37 °C; antibody captured on anti-human Fc surface, hPCSK9-mmH injected (3.125-50 nM); association at pH 7.4, dissociation at pH 5.75
Procedure: as §2

[13] = molecular target: T3, human PCSK9 with a C-terminal …; experiment: SPR (Biacore), 37 °C; antibody captured on anti-human Fc surface, hPCSK9-mmH injected (3.125-50 nM); association at pH 7.4, dissociation at pH 7.2
Procedure: as §2

[14] = molecular target: T3, human PCSK9 with a C-terminal …; experiment: blocking ELISA pH 5.75, 500 pM hPCSK9-mmH vs coated hLDLR EGFA-hFc
Procedure: as §4, §5

[15] = molecular target: T1, human PCSK9 with a C-terminal myc-myc …; experiment: cell-based or functional assay; remark: listed apart in the source
[16] = molecular target: T2, recombinant cynomolgus monkey PCSK9 …; experiment: cell-based or functional assay; remark: listed apart in the source
[17] = molecular target: T3, human PCSK9 with a C-terminal …; experiment: cell-based or functional assay
[18] = molecular target: T3, human PCSK9 with a C-terminal …; experiment: cell-based or functional assay; remark: listed apart in the source
[19] = molecular target: T3, human PCSK9 with a C-terminal …; experiment: blocking ELISA, hPCSK9-mmH vs coated hLDLR EGFA-hFc
Procedure: as §4, §5

[20] = molecular target: T3, human PCSK9 with a C-terminal …; experiment: SPR 25C pH 6.0, purified mAb captured
Procedure: as §1, §3

[21] = molecular target: T3, human PCSK9 with a C-terminal …; experiment: SPR 25C pH 7.4, purified mAb captured
Procedure: as §1
All measurements were taken at 25° C.

[22] = molecular target: T3, human PCSK9 with a C-terminal …; experiment: SPR (Biacore), 37 °C; antibody captured on anti-human Fc surface, hPCSK9-mmH injected (3.125-50 nM); association at pH 7.4, dissociation at pH 7.2; remark: listed apart in the source
Procedure: as §2

[23] = molecular target: T3, human PCSK9 with a C-terminal …; experiment: SPR (Biacore), 37 °C; antibody captured on anti-human Fc surface, hPCSK9-mmH injected (3.125-50 nM); association at pH 7.4, dissociation at pH 7.4; remark: listed apart in the source
Procedure: (§6) All experiments were carried out at 37° C.
as §2

[24] = molecular target: T3, human PCSK9 with a C-terminal …; experiment: SPR (Biacore), 37 °C; antibody captured on anti-human Fc surface, hPCSK9-mmH injected (3.125-50 nM); association at pH 7.4, dissociation at pH 6.0; remark: listed apart in the source
Procedure: as §6, §2

[25] = molecular target: T3, human PCSK9 with a C-terminal …; experiment: SPR 25C pH 7.2, mAb captured; pH 7.2, 25 C;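 for t½: biacore SPR, antibodies captured on anti-human Fc CM4 chip with PCSK9 flowed as analyte, rate constants from a one-to-one kinetic fit, KD and half-life derived from them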
Procedure: as §1

[26] = molecular target: T3, human PCSK9 with a C-terminal …; experiment: SPR (Biacore), 37 °C; antibody captured on anti-human Fc surface, hPCSK9-mmH injected (3.125-50 nM); association at pH 7.4, dissociation at pH 5.75; remark: listed apart in the source
Procedure: as §6, §2

[27] = molecular target: T3, human PCSK9 with a C-terminal …; experiment: SPR 25C pH 7.2, mAb captured; pH 7.2 (neutral), 25 C
Procedure: as §1

Binder | IC50, LDL uptake in HepG2 cells, 2 nM hPCSK9-D374Y-mmH [1] | IC50, LDL uptake in HepG2 cells, 50 nM MfPCSK9-mmH [2] | IC50 [3] | KD ratio pH 5.75/pH 7.2 [4] | t½ ratio pH 5.75/pH 7.2 [4] | t½ [5] | IC50 [6] | Kd [7] | t½ [7] | KD ratio pH 6.0/pH 7.4 [9] | ka ratio pH 6.0/pH 7.4 [9] | kd ratio pH 6.0/pH 7.4 [9] | t½ ratio pH 6.0/pH 7.4 [9] | IC50 [11] | IC50 [14] | IC50, LDL uptake in HepG2 cells, 100 nM hPCSK9-mmH [18] | IC50 ratio (pH 5.75/pH 7.2) [19] | Kd [20] | koff [20] | kon [20] | also measured
B1 | 1.2 nM | 10 nM | 0.153 nM | 1.15 | 0.26 | 48 min | 0.226 nM | 0.999 nM | 13 min |  |  |  |  |  |  |  |  |  |  |  | Kd [5]: 0.865 nM
B2 |  |  |  |  |  |  |  |  |  | 2.09 | 1.89 | 3.94 | 0.25 | 0.221 nM | 0.268 nM | 32 nM | 1.2 | 1.14 nM | 0.000313 s⁻¹ | 274000 M⁻¹ s⁻¹ | t½ (dissociative half-life) [8]: 34.6 min; t½ (dissociative half-life) [10]: 7.1 min; t½ (dissociative half-life) [12]: 7 min; t½ (dissociative half-life) [13]: 46.2 min; IC50, LDL uptake in HepG2 cells, 2 nM hPCSK9-D374Y-mmH [15]: 2 nM; IC50, LDL uptake in HepG2 cells, 50 nM MfPCSK9-mmH [16]: 15.7 nM; IC50, LDL uptake in HepG2 cells, 50 nM hPCSK9-mmH [17]: 10.3 nM; t½ [20]: 36.9 min; Kd [21]: 0.546 nM; koff [21]: 7.93e-05 s⁻¹; kon [21]: 145000 M⁻¹ s⁻¹; t½ [21]: 146 min
B3 | 2.7 nM | 12.7 nM | 0.395 nM | 4.34 | 0.1 | 35 min | 0.349 nM | 9.59 nM | 3.4 min | 6.64 | 1.26 | 8.35 | 0.12 | 0.319 nM | 1.75 nM | 32 nM | 5.5 | 7.04 nM | 0.00075 s⁻¹ | 107000 M⁻¹ s⁻¹ | t½ (dissociative half-life) [22]: 42 min; t½ (dissociative half-life) [23]: 36 min; t½ (dissociative half-life) [24]: 3.5 min; Kd [25]: 2.21 nM; t½ [20]: 15.4 min; Kd [21]: 1.06 nM; koff [21]: 8.98e-05 s⁻¹; kon [21]: 84700 M⁻¹ s⁻¹; t½ [21]: 129 min; t½ (dissociative half-life) [26]: 2.8 min
B4 |  |  |  |  |  |  |  |  |  |  |  |  |  |  |  |  |  |  |  |  | Kd [27]: 386 nM; t½ [27]: 0 h
B5 | 2.1 nM | 19.9 nM | 0.198 nM | 25.5 | 0.01 | 16 min | 0.166 nM | 57.8 nM | 0.2 min | 14.8 | 1.94 | 28.8 | 0.03 | 0.209 nM | 43.4 nM | 37 nM | 208 | 27 nM | 0.00845 s⁻¹ | 313000 M⁻¹ s⁻¹ | t½ (dissociative half-life) [22]: 11.2 min; t½ (dissociative half-life) [23]: 10.6 min; t½ (dissociative half-life) [24]: 0.4 min; IC50, LDL uptake in HepG2 cells, 2 nM hPCSK9-D374Y-mmH [15]: 3.3 nM; IC50, LDL uptake in HepG2 cells, 50 nM MfPCSK9-mmH [16]: 26.4 nM; IC50, LDL uptake in HepG2 cells, 50 nM hPCSK9-mmH [17]: 9 nM; Kd [5]: 2.27 nM; t½ [20]: 1.4 min; Kd [21]: 1.82 nM; koff [21]: 0.000293 s⁻¹; kon [21]: 161000 M⁻¹ s⁻¹; t½ [21]: 39.4 min; t½ (dissociative half-life) [26]: 0.2 min
